Measurements from patent US20100168002A1 (UNIVERSITY OF BRISTOL, published 2010).

Key:
[1] = biological target: T1, CD33-Fc (UniProt P20138 18-259); experiment: blot overlay
T1 construct: Negative control construct; not shown: Fc part, detected with goat anti-human Fc antibodies

[2] = biological target: T2, CEACAM1-Fc soluble receptor construct (human, UniProt P13688 35-320); experiment: assay not named
T2 construct: also called CC1-Fc; human CEACAM1-Fc; not shown: Fc part, detected with goat anti-human Fc antibodies
T2 sequence: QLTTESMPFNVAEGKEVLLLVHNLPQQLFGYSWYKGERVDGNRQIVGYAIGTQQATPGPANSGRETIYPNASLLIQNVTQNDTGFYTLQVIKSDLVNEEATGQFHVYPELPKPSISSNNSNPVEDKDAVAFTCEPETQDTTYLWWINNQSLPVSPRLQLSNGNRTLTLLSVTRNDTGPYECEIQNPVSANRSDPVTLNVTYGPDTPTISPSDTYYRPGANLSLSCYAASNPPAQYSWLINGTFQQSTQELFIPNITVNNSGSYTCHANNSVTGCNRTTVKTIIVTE

[3] = biological target: T2, CEACAM1-Fc soluble receptor construct; experiment: Western blot overlay with CEACAM1-Fc
[4] = biological target: T1, CD33-Fc; experiment: dot blot overlay of whole bacteria with soluble receptor

T1 sequence (P20138 18-259 limits assumed): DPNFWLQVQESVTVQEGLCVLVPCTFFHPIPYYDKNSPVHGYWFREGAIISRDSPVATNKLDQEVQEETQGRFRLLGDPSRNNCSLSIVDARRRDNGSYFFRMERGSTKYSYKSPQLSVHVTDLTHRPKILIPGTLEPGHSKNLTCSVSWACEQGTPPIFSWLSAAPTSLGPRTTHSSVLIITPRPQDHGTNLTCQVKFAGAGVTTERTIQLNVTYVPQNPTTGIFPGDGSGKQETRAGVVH

B1: recombinant UspA1 fragment D-8 (peptide)
chain: ASSANTDRIATAELGIAENKKDAQIAKAQANENKDGIAKNQADIQLHDKKITNLGILHSMVARAVGNNTQGVATNKADIAKNQADIANNIKNIYELAQQQDQHSSDIKTLAKVSAANTDRIAKNKAEADASFETLTKNQNTLIEQGEALVEQNKAINQELEGFAAHADVQDKQILQNQADITTNKTAIEQNINRTVANGFEIEKNKAGIATNKQELILQNDRLNRINETNNHQDQKIDQLGYALKEQGQHFNNRISAVERQTAGGIANAIAIATLPSPSRAGEHHVLFGSGYHNGQAAVSLGAAGLSDTGKSTYKIGLSWSDAGGLSGGVGGSYRWK
notes: Limits deduced: D = 527 (see D-7), 8 = 863 (from 6-8, E659-K863); also called D-8 polypeptide; not shown: His tag from the pQE30 vector
- binding result [1]: no binding

B2: peptide D-8 with deletion of the region 571-632 (D-8Δ) (peptide)
chain: ASSANTDRIATAELGIAENKKDAQIAKAQANENKDGIAKNQADIIKTLAKVSAANTDRIAKNKAEADASFETLTKNQNTLIEQGEALVEQNKAINQELEGFAAHADVQDKQILQNQADITTNKTAIEQNINRTVANGFEIEKNKAGIATNKQELILQNDRLNRINETNNHQDQKIDQLGYALKEQGQHFNNRISAVERQTAGGIANAIAIATLPSPSRAGEHHVLFGSGYHNGQAAVSLGAAGLSDTGKSTYKIGLSWSDAGGLSGGVGGSYRWK
notes: Outer limits as deduced for D-8 (527-863); the deletion 571-632 is printed; also called control peptide; not shown: His tag from the pQE30 vector
- binding result [2]: no binding

B3: recombinant UspA1 fragment 6-8 (residues E659-K863 of UspA1 of MX2) (peptide)
chain: ETLTKNQNTLIEQGEALVEQNKAINQELEGFAAHADVQDKQILQNQADITTNKTAIEQNINRTVANGFEIEKNKAGIATNKQELILQNDRLNRINETNNHQDQKIDQLGYALKEQGQHFNNRISAVERQTAGGIANAIAIATLPSPSRAGEHHVLFGSGYHNGQAAVSLGAAGLSDTGKSTYKIGLSWSDAGGLSGGVGGSYRWK
notes: also called P6-P8; not shown: His tag from the pQE30 vector
- binding result [3]: no binding

B4: N-terminal recombinant MX2 peptide consisting of amino acids 1 to 449 (peptide)
chain: MNKIYKVKKNAAGHLVACSEFAKGHTKKAVLGSLLIVGILGMATTASAQKVGKATNKISGGDNNTANGTYLTIGGGDYNKTKGRYSTIGGGLFNEATNEYSTIGSGGYNKAKGRYSTIGGGGYNEATNQYSTIGGGDNNTAKGRYSTIGGGGYNEATIENSTVGGGGYNQAKGRNSTVAGGYNNEATGTDSTIAGGRKNQATGKGSFAAGIDNKANADNAVALGNKNTIEGENSVAIGSNNTVKKGQQNVFILGSNTDTTNAQNGSVLLGHNTAGKAATIVNSAEVGGLSLTGFAGASKTGNGTVSVGKKGKERQIVHVGAGEISDTSTDAVNGSQLHALATVVAQNKADIKDLDDEVGLLGEEINSLEGEIFNNQDAIAKNQADIKTLESNVEEGLLDLSGRLIDQKADIDNNINNIYELAQQQDQHSSDIKTLKNNVEEGLLDLSGR
- binding result [2]: no binding

B5: UspA1 protein of Moraxella catarrhalis strain MX2 (ATCC 25238) (ligand)
chain: QKVGKATNKISGGDNNTANGTYLTIGGGDYNKTKGRYSTIGGGLFNEATNEYSTIGSGGYNKAKGRYSTIGGGGYNEATNQYSTIGGGDNNTAKGRYSTIGGGGYNEATIENSTVGGGGYNQAKGRNSTVAGGYNNEATGTDSTIAGGRKNQATGKGSFAAGIDNKANADNAVALGNKNTIEGENSVAIGSNNTVKKGQQNVFILGSNTDTTNAQNGSVLLGHNTAGKAATIVNSAEVGGLSLTGFAGASKTGNGTVSVGKKGKERQIVHVGAGEISDTSTDAVNGSQLHALATVVAQNKADIKDLDDEVGLLGEEINSLEGEIFNNQDAIAKNQADIKTLESNVEEGLLDLSGRLIDQKADIDNNINNIYELAQQQDQHSSDIKTLKNNVEEGLLDLSGRLIDQKADLTKDIKALESNVEEGLLDLSGRLIDQKADIAKNQADIAQNQTDIQDLAAYNELQDAYAKQQTEAIDALNKASSANTDRIATAELGIAENKKDAQIAKAQANENKDGIAKNQADIQLHDKKITNLGILHSMVARAVGNNTQGVATNKADIAKNQADIANNIKNIYELAQQQDQHSSDIKTLAKVSAANTDRIAKNKAEADASFETLTKNQNTLIEQGEALVEQNKAINQELEGFAAHADVQDKQILQNQADITTNKTAIEQNINRTVANGFEIEKNKAGIATNKQELILQNDRLNRINETNNHQDQKIDQLGYALKEQGQHFNNRISAVERQTAGGIANAIAIATLPSPSRAGEHHVLFGSGYHNGQAAVSLGAAGLSDTGKSTYKIGLSWSDAGGLSGGVGGSYRWK
notes: Tested on whole bacteria or in whole cell lysates; migrates at >200 kDa unheated and at circa 92 kDa after boiling; also called MX2 UspA1
- binding result [4]: no binding (tested: 1-2 µg ml^-1)
